The RNAGym collection of RNA variant scans (doi:10.7554/elife.90254)

B1: LINE1-full (parent)
chain: UACGUAGGUGGUUUUCCCCUGAUAGUGCUAAGGGGGCCUGGAAGUUUGGACUGGGCAGAGCUCAACACAGCGUGGCAAAGUGGCUGUGGCUAGACUGCCUCUCUGGAUUCCUCGUCACUCAGCAGGGCAUCUCUGAGAGAAAUGCC

Variants of: B1
Test: self-cleavage, relative activity (ratio to wild type); higher = more cleavage; in vitro, sequencing; the parent is a self-cleaving ribozyme

Row | Variant | self-cleavage
1 | UACGUAGGUGGUUUUCCCCUGAUAGUGCUAAGGGGGCCUAGAAGUUUGGACUGGGCAGAGCUCAACACAGCGUGGCAAAGUGGCUGUGGCUAGACUGCCUCUCUGGAUUCCCCGUCACUCAGCAGGGCAUCUCUGAGAGAAAUGCC [G40A U112C] | 0.89
2 | UACGUAGGUGGUUUUCCCCUGAUAGUGCUAAGGGGGCCUAGAAGUUUGGACUGGGCAGAGCUCAACACAGCGUGGCAAAGUGGCUGUGGCUAGACUGCCUCUCUGGAUUCCUCGACACUCAGCAGGGCAUCUCUGAGAGAAAUGCC [G40A U115A] | 1.17
3 | UACGUAGGUGGUUUUCCCCUGAUAGUGCUAAGGGGGCCUAGAAGUUUGGACUGGGCAGAGCUCAACACAGCGUGGCAAAGUGGCUGUGGCUAGACUGCCUCUCUGGAUUCCUCGCCACUCAGCAGGGCAUCUCUGAGAGAAAUGCC [G40A U115C] | 1.18
4 | UACGUAGGUGGUUUUCCCCUGAUAGUGCUAAGGGGGCCUAGAAGUUUGGACUGGGCAGAGCUCAACACAGCGUGGCAAAGUGGCUGUGGCUAGACUGCCUCUCUGGAUUCCUCGUCACCCAGCAGGGCAUCUCUGAGAGAAAUGCC [G40A U119C] | 0.84
5 | UACGUAGGUGGUUUUCCCCUGAUAGUGCUAAGGGGGCCUAGAAGUUUGGACUGGGCAGAGCUCAACACAGCGUGGCAAAGUGGCUGUGGCUAGACUGCCUCUCUGGAUUCCUCGUCACUCAGCAGGGCAACUCUGAGAGAAAUGCC [G40A U130A] | 1.36
6 | UACGUAGGUGGUUUUCCCCUGAUAGUGCUAAGGGGGCCUAGAAGUUUGGACUGGGCAGAGCUCAACACAGCGUGGCAAAGUGGCUGUGGCUAGACUGCCUCUCUGGAUUCCUCGUCACUCAGCAGGGCAGCUCUGAGAGAAAUGCC [G40A U130G] | 1.19
7 | UACGUAGGUGGUUUUCCCCUGAUAGUGCUAAGGGGGCCUCGGAGUUUGGACUGGGCAGAGCUCAACACAGCGUGGCAAAGUGGCUGUGGCUAGACUGCCUCUCUGGAUUCCUCGUCACUCAGCAGGGCAUCUCUGAGAGAAAUGCC [G40C A42G] | 1.09
8 | UACGUAGGUGGUUUUCCCCUGAUAGUGCUAAGGGGGCCUCGAAGUUUGGACUGGGCAGAGCUCAACACAGCGUGGCAAAGUGGCUGUGGCUAGACUGCCUCUCUGGAUUCCUCGUCACUCAGCAGGGCAUCUCUGAGAGGAAUGCC [G40C A140G] | 1.23
9 | UACGUAGGUGGUUUUCCCCUGAUAGUGCUAAGGGGGCCUCGAAGUUUGGACUGGGCAGAGCUCAACACAGCGUGGCAAAGUGGCUGUGGCUAGACUGCCUCUCUGGAUUCCUCGUCACUCAGCAGGGCAUCUCUGAGAGAAAUGCU [G40C C146U] | 1.54
10 | UACGUAGGUGGUUUUCCCCUGAUAGUGCUAAGGGGGCCUCGAAGCUUGGACUGGGCAGAGCUCAACACAGCGUGGCAAAGUGGCUGUGGCUAGACUGCCUCUCUGGAUUCCUCGUCACUCAGCAGGGCAUCUCUGAGAGAAAUGCC [G40C U45C] | 0.75
11 | UACGUAGGUGGUUUUCCCCUGAUAGUGCUAAGGGGGCCUUGAAGUUUGGGCUGGGCAGAGCUCAACACAGCGUGGCAAAGUGGCUGUGGCUAGACUGCCUCUCUGGAUUCCUCGUCACUCAGCAGGGCAUCUCUGAGAGAAAUGCC [G40U A50G] | 0
12 | UACGUAGGUGGUUUUCCCCUGAUAGUGCUAAGGGGGCCUUGAAGUUUGGACUGGGCAGAGCUCAACACAGCGUGGCAGAGUGGCUGUGGCUAGACUGCCUCUCUGGAUUCCUCGUCACUCAGCAGGGCAUCUCUGAGAGAAAUGCC [G40U A78G] | 0.81
13 | UACGUAGGUGGUUUUCCCCUGAUAGUGCUAAGGGGGCCUUGAAGUUUGGACUGGGCAGAGCUCAACACAGCGUGGCAAAGUGGCUGUGGCUGGACUGCCUCUCUGGAUUCCUCGUCACUCAGCAGGGCAUCUCUGAGAGAAAUGCC [G40U A92G] | 0.02
14 | UACGUAGGUGGUUUUCCCCUGAUAGUGCUAAGGGGGCCUUGAAGUUUGGACUGGGCAGAGCUCAACACAGCGUGGCAAAGUGGCUGUGGCUAGACUGCCUCUCUGGAUUCCUCGUCACUCAGCGGGGCAUCUCUGAGAGAAAUGCC [G40U A124G] | 0.87
15 | UACGUAGGUGGUUUUCCCCUGAUAGUGCUAAGGGGGCCUUGAAGUUUGGACUGGGCAGAGCUCAACACAGCGUGGCAAAGUGGCUGUGGCUAGACUGCCUCUCUGGAUUCCUCGUCACUCAGCAGGGCAUCUCUGAGAGUAAUGCC [G40U A140U] | 1.79
16 | UACGUAGGUGGUUUUCCCCUGAUAGUGCUAAGGGGGCCUUGAAGUUUGGACUGGGCAGAGCUCAACACAGCGUGGCAAAGUGGCCGUGGCUAGACUGCCUCUCUGGAUUCCUCGUCACUCAGCAGGGCAUCUCUGAGAGAAAUGCC [G40U U85C] | 0.13
17 | UACGUAGGUGGUUUUCCCCUGAUAGUGCUAAGGGGGCCUUGAAGUUUGGACUGGGCAGAGCUCAACACAGCGUGGCAAAGUGGCUGUGGCUAGACUGCCUCCCUGGAUUCCUCGUCACUCAGCAGGGCAUCUCUGAGAGAAAUGCC [G40U U102C] | 1
18 | UACGUAGGUGGUUUUCCCCUGAUAGUGCUAAGGGGGCCUGAAAGUUUGGACUGGGCAGAGCUCAACACAGCGUGGCAAAGUGGCUGUGGCUAGACUGCCUCUCUGGAUUCCUCGUCACUCAGCAGGGCAUCUCUGAGAGAAAUGCC [G41A] | 1.16
19 | UACGUAGGUGGUUUUCCCCUGAUAGUGCUAAGGGGGCCUGAAAGUUUGGACUGGGCUGAGCUCAACACAGCGUGGCAAAGUGGCUGUGGCUAGACUGCCUCUCUGGAUUCCUCGUCACUCAGCAGGGCAUCUCUGAGAGAAAUGCC [G41A A57U] | 0.11
20 | UACGUAGGUGGUUUUCCCCUGAUAGUGCUAAGGGGGCCUGAAAGUUUGGACUGGGCAGGGCUCAACACAGCGUGGCAAAGUGGCUGUGGCUAGACUGCCUCUCUGGAUUCCUCGUCACUCAGCAGGGCAUCUCUGAGAGAAAUGCC [G41A A59G] | 0.07

Row | Variant | self-cleavage
21 | UACGUAGGUGGUUUUCCCCUGAUAGUGCUAAGGGGGCCUGAAAGUUUGGACUGGGCAGAGCUCAGCACAGCGUGGCAAAGUGGCUGUGGCUAGACUGCCUCUCUGGAUUCCUCGUCACUCAGCAGGGCAUCUCUGAGAGAAAUGCC [G41A A65G] | 0.03
22 | UACGUAGGUGGUUUUCCCCUGAUAGUGCUAAGGGGGCCUGAAAGUUUGGACUGGGCAGAGCUCAACACUGCGUGGCAAAGUGGCUGUGGCUAGACUGCCUCUCUGGAUUCCUCGUCACUCAGCAGGGCAUCUCUGAGAGAAAUGCC [G41A A69U] | 0.06
23 | UACGUAGGUGGUUUUCCCCUGAUAGUGCUAAGGGGGCCUGAAAGUUUGGACUGGGCAGAGCUCAACACAGCGUGGCAAAGUGGCUGUGGCUAGGCUGCCUCUCUGGAUUCCUCGUCACUCAGCAGGGCAUCUCUGAGAGAAAUGCC [G41A A94G] | 0.13
24 | UACGUAGGUGGUUUUCCCCUGAUAGUGCUAAGGGGGCCUGAAAGUUUGGACUGGGCAGAGCUCAACACAGCGUGGCAAAGUGGCUGUGGCUAGACUGCCUCUCUGGAUUCCUCGUCACUCGGCAGGGCAUCUCUGAGAGAAAUGCC [G41A A121G] | 1.15
25 | UACGUAGGUGGUUUUCCCCUGAUAGUGCUAAGGGGGCCUGAAAGUUUGGACUGGGCAGAGCUCAACACAGCGUGGCAAAGUGGCUGUGGCUAGACUGCCUCUCUGGAUUCCUCGUCACUCAGCUGGGCAUCUCUGAGAGAAAUGCC [G41A A124U] | 1.08
26 | UACGUAGGUGGUUUUCCCCUGAUAGUGCUAAGGGGGCCUGAAAGUUUGGACUGGGCAGAGCUCAACACAGCGUGGCAAAGUGGCUGUGGCUAGACUGCCUCUCUGGAUUCCUCGUCACUCAGCAGGGCUUCUCUGAGAGAAAUGCC [G41A A129U] | 1.42
27 | UACGUAGGUGGUUUUCCCCUGAUAGUGCUAAGGGGGCCUGAAAGUUUGGACUGGGCAGAGCUCAACACAGCGUGGCAAAGUGGCUGUGGCUAGACUGCCUCUCUGGAUUCCUCGUCACUCAGCAGGGCAUCUCUGUGAGAAAUGCC [G41A A136U] | 1.53
28 | UACGUAGGUGGUUUUCCCCUGAUAGUGCUAAGGGGGCCUGAAAGUUUGGACUGGGCAGAGCUCAACACAGCGUGGCAAAGUGGCUGUGGCUAGACUGCCUCUCUGGAUUCCUCGUCACUCAGCAGGGCAUCUCUGAGAGGAAUGCC [G41A A140G] | 1.05
29 | UACGUAGGUGGUUUUCCCCUGAUAGUGCUAAGGGGGCCUGAAAGUUUGGACUGGGCAGAGCUCAACACAGCGUGGCAAAGUGGCUGUGGCUAGACUGCCUCUCUGGAUUCCUCGUCACUCAGCAGGGCAUCUCUGAGAGAGAUGCC [G41A A141G] | 0.96
30 | UACGUAGGUGGUUUUCCCCUGAUAGUGCUAAGGGGGCCUGAAAGUUUGGACUGGGCAGAGCUCAACACAGCGUGGCAAAGUGGCUGUGGCUAGACUGCCUCUCUGGAUUCCUCGUCACUCAGCAGGGCAUCUCUGAGAGAAGUGCC [G41A A142G] | 1.18
31 | UACGUAGGUGGUUUUCCCCUGAUAGUGCUAAGGGGGCCUGAAAGUUUGGACUGGGCAGAGCUCAACACAGCGUGGCAAAGUGGCUGUGGCUAGACUGCCUCUCUGGAUUCCUCGUCACUCAGCAAGGCAUCUCUGAGAGAAAUGCC [G41A G125A] | 1.46
32 | UACGUAGGUGGUUUUCCCCUGAUAGUGCUAAGGGGGCCUGAAAGUUAGGACUGGGCAGAGCUCAACACAGCGUGGCAAAGUGGCUGUGGCUAGACUGCCUCUCUGGAUUCCUCGUCACUCAGCAGGGCAUCUCUGAGAGAAAUGCC [G41A U47A] | 1.77
33 | UACGUAGGUGGUUUUCCCCUGAUAGUGCUAAGGGGGCCUGAAAGUUUGGACUGGGCAGAGCCCAACACAGCGUGGCAAAGUGGCUGUGGCUAGACUGCCUCUCUGGAUUCCUCGUCACUCAGCAGGGCAUCUCUGAGAGAAAUGCC [G41A U62C] | 0.08
34 | UACGUAGGUGGUUUUCCCCUGAUAGUGCUAAGGGGGCCUGAAAGUUUGGACUGGGCAGAGCUCAACACAGCGUGGCAAAGUGGCAGUGGCUAGACUGCCUCUCUGGAUUCCUCGUCACUCAGCAGGGCAUCUCUGAGAGAAAUGCC [G41A U85A] | 0
35 | UACGUAGGUGGUUUUCCCCUGAUAGUGCUAAGGGGGCCUGAAAGUUUGGACUGGGCAGAGCUCAACACAGCGUGGCAAAGUGGCCGUGGCUAGACUGCCUCUCUGGAUUCCUCGUCACUCAGCAGGGCAUCUCUGAGAGAAAUGCC [G41A U85C] | 0.05
36 | UACGUAGGUGGUUUUCCCCUGAUAGUGCUAAGGGGGCCUGAAAGUUUGGACUGGGCAGAGCUCAACACAGCGUGGCAAAGUGGCGGUGGCUAGACUGCCUCUCUGGAUUCCUCGUCACUCAGCAGGGCAUCUCUGAGAGAAAUGCC [G41A U85G] | 0.09
37 | UACGUAGGUGGUUUUCCCCUGAUAGUGCUAAGGGGGCCUGAAAGUUUGGACUGGGCAGAGCUCAACACAGCGUGGCAAAGUGGCUGUGGCUAGACUGCCUCACUGGAUUCCUCGUCACUCAGCAGGGCAUCUCUGAGAGAAAUGCC [G41A U102A] | 1.05
38 | UACGUAGGUGGUUUUCCCCUGAUAGUGCUAAGGGGGCCUGAAAGUUUGGACUGGGCAGAGCUCAACACAGCGUGGCAAAGUGGCUGUGGCUAGACUGCCUCUCUGGAUUCCCCGUCACUCAGCAGGGCAUCUCUGAGAGAAAUGCC [G41A U112C] | 1.67
39 | UACGUAGGUGGUUUUCCCCUGAUAGUGCUAAGGGGGCCUGAAAGUUUGGACUGGGCAGAGCUCAACACAGCGUGGCAAAGUGGCUGUGGCUAGACUGCCUCUCUGGAUUCCUCGUCACCCAGCAGGGCAUCUCUGAGAGAAAUGCC [G41A U119C] | 1.15
